Positions count from the first letter of the chain named.

The target of experiment [1] is T1, S. japonicus Tup11 WD40 domain (amino acids 301–630), wild type (S. japonicus, UniProt B6JV84 301-630).
T1 chain: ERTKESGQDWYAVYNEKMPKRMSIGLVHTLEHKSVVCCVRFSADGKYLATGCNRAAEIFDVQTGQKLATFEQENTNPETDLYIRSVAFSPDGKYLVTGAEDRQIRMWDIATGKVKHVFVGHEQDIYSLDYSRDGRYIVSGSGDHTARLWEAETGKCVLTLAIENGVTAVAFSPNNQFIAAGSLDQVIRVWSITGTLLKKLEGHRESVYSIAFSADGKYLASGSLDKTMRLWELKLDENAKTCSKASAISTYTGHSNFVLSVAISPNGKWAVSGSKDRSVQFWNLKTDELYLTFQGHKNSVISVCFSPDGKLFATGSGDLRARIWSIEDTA
As to the kind of experiment: ITC. A general note: In ITC the heat of successive injections is recorded.

Experiment [2] has as its target T2, S. japonicus Tup11 WD40 domain (301–630) Thr467Ala (S. japonicus, UniProt B6JV84 301-630, Thr467 substituted by Ala).
T2 construct: Tup11, S. japonicus, WD40 domain, amino acids 301-630
T2 sequence (looked up): T1 chain with T167A
As to the kind of experiment: ITC; Fep1 (~1.4 mM) injected, 2 µl each time, into Tup11 WT or mutant (~0.2 mM); 25°C; 1×PBS pH 7.4, 150 mM NaCl; iTC200 (MicroCal); Fep1 into buffer subtracted as background. As to conditions: both partners purified.

B1: C-terminal region of S. pombe Fep1 (amino acids 319–564) (domain or fragment, UniProt Q10134 319-564, looked up)
chain: AAGEPDNNGKVYYSYGPTQEQSILPLPENKHEGLPPYQNEYVPNGIRANQVVYPGQLVAVGNDSSKQLSESTTSNTDNNGVATANQSNPLGMKFHLPPILPVGESVCLPPRTSAKPRIAEGIASLLNPEEPPSNSDKQPSMSNGPKSEVSPSQSQQAPLIQSSTSPVSLQFPPEVQGSNVDKRNYALNVLSQLRSQHDLMIQELHNLNQHIQQIDEWLRSSDNENMASEHIKSSTPAVVASGALQT
notes: Fep1, GATA-factor, S. pombe, C-terminal region, amino acids 319-564
B1 had a Ka in experiment [1] of 70000 M⁻¹. In addition, the binding result in experiment [2] is reported as “binds”.
